Test results as given in US10370642B2, “Hematopoietic progenitor cell populations having affinity for E-selectin / L-selectin” (priority 2000, dated 2019).

B1: KG1a PSGL-1: PSGL-1 immunoaffinity purified (PL-2) from KG1a cells (protein)
chain: QATEYEYLDYDFLPETEPPEMLRNSTDTTPLTGPGTPESTTVEPAARRSTGLDAGGAVTELTTELANMGNLSTDSAAMEIQTTQPAATEAQTTQPVPTEAQTTPLAATEAQTTRLTATEAQTTPLAATEAQTTPPAATEAQTTQPTGLEAQTTAPAAMEAQTTAPAAMEAQTTPPAAMEAQTTQTTAMEAQTTAPEATEAQTTQPTATEAQTTPLAAMEALSTEPSATEALSMEPTTKRGLFIPFSVSSVTHKGIPMAASNLSVNYPVGAPDHISVKQCLLAILILALVATIFFVCTVVLAVRLSRKGHMYPVRNYSPTEMVCISSLLPDGGEGPSATANGGLSKAKSPGLTPEPREDREGDDLTLHSFLP

Assays:
[1] = tested on: CD44; test: [35S]-SO4 metabolic labeling of CD44 in KG1a cells; type: cell-based, human; details: 10 mM sodium chlorate for 24 hr after bromelain
Excerpt: To determine if CD44 on KG1a cells is sulfated, KG1a cell cultures were metabolically labeled with [^35S]-SO4. CD44 immunoprecipitated from these cells was indeed sulfated (FIG. 11 A). To test whether sulfation was critical for L-selectin ligand activity of CD44, KG1a cells were pretreated with 0.1% bromelain, a protease that eliminates all KG1a HCLL activity (Sackstein, R. & Dimitroff, C. J. (2000). Blood. 96, 2765-2774) and also removes CD44 from the cell surface (Hale, L. P. & Haynes, B. F. (1992). J. Immunol 149:3809-3816). Following bromelain digestion of KG1a, re-expression of HCELL requires de novo protein synthesis, and protein synthesized in the presence of chlorate (a metabolic inhibitor of both protein and carbohydrate sulfation) is non-sulfated (Sackstein, R., Fu, L. and Allen, K. L. (1997). Blood. 89:2773-2781). Therefore, KG1a was treated with bromelain and confirmed removal of CD44 by flow cytometry. The KG1a cells were cultured in the absence or presence of 10 mM sodium chlorate for 24 hr and metabolically radiolabeled the cells for the last 8 hr of incubation with [^35S]-SO4 in sulfate-deficient CRCM-30 medium. […] This effect of chlorate was specific for sulfate incorporation and not a general inhibition of CD44 protein synthesis, as [^35S]-methionine/cysteine metabolic radioloabeling of CD44 was identical in chlorate- and non-chlorate-treated cell populations.

[2] = molecular target: T1, L-selectin (Rattus norvegicus, UniProt P30836); test: Stamper-Woodruff assay, lymphocyte adherence to immunoprecipitated CD44 and PSGL-1; type: cell-based; details: 0.75 μg/spot (PSGL-1 1 μg/spot); 80 rpm, 4° C.; 100× mag.
T1 construct: L-selectin naturally expressed on leukocytes; endogenous in cells; host or cells: lymphocytes (rat thoracic duct lymphocytes; human PBMC also prepared)
T1 sequence (P30836 39-372): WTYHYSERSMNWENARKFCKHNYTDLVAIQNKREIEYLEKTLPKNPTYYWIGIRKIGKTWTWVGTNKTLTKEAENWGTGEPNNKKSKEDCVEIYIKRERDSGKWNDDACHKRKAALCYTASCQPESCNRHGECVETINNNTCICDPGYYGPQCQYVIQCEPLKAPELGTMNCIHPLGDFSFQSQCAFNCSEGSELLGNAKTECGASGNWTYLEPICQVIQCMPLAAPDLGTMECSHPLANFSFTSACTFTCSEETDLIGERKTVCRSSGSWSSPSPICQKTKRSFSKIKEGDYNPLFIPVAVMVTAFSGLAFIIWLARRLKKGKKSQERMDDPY
Experimental: These protein spots were then fixed in 3% glutaraldehyde, unreactive aldehyde groups were blocked in 0.2M lysine and slides were kept in RPMI-1640 without NaBicarbonate/2% FBS until ready for testing. Lymphocytes (10^7/ml RPMI-1640 without NaBicarbonate/5% FBS) were overlayed onto these fixed immunoprecipitates and incubated on an orbital shaker at 80 rpm for 30 min. at 4° C. The number of adherent lymphocytes was quantified by light microscopy using an ocular grid under 100× magnification (a minimum of 5 fields/slide, 2 slides/experiment, and 3 separate experiments). Data were presented as the mean number of bound lymphocytes±standard deviation. KG1a CD34 and L-selectin control immunoprecipitates were also tested in this manner. To verify the dependence for sialic acid, glutaraldehyde-fixed spots were treated with Vibrio cholerae neuraminidase (0.1 U/ml RPMI-1640 without NaBicarbonate/2% FBS for lhr at 37° C.).
Immunoaffinity purified material (0.75-3 μg/spot) was spotted onto glass slides for analyses in the Stamper-Woodruff assay (See below for assay description). For autoradiographic analysis of immunoprecipitated [^35S]-methionine-radiolabeled CD44 and PSGL-1, immunoprecipitates were spotted onto glass slides, allowed to dry and exposed Kodak BioMax-MR film for 12 h at −80° C. Densitometric analysis (optical density) of the autoradiograms was performed with a Hewlett-Packard Scanj et 5200C scanner and NIH Image processing and analysis program.

[3] = tested on: L-selectin; test: Blot rolling assay with L-selectin-expressing lymphocytes; type: cell-based; details: 2.3 dynes/cm^2
Experimental: L-selectin-expressing lymphocytes were isolated as previously described (Oxley, S. M. & Sackstein, R. (1994). Blood. 84:3299-3306; Sackstein, R., Fu, L. and Allen, K. L. (1997) Blood. 89:2773-2781), washed twice in HBSS and suspended at 2×10^7/ml in HBSS/10 mM HEPES/2mMCaCl2 (H/H/Ca^++)/10% glycerol. Cell lysate material is separated by SDS-PAGE and transferred to PVDF under standard blotting conditions. Western blots of KG1a membrane preparations stained with HECA-452, A3D8 or Hermes-1 were rendered transparent by incubating them in H/H/Ca^++/10% glycerol. To study L-selectin-mediated adhesive interactions, the blots were placed in the parallel plate flow chamber and lymphocytes were perfused into the chamber at a shear force of 2.3 dynes/cm^2 and cellular adhesive interactions are observed by video microscopy and analyzed in real time.
The number of lymphocytes rolling on and between each immunostained banding region was quantified from five independent fields under 200× magnification on the video monitor using molecular weight markers as guides to help align and visualize the proteins of interest. A minimum of 3 experiments were performed, and results were expressed as the mean of cell rolling/field.

[4] = molecular target: T2, E-selectin (Homo sapiens, UniProt P16581); test: Blot rolling assay with CHO-E cells; type: cell-based; details: immunoprecipitated CD44 on Western blot; 3.8 dynes/cm^2
T2 construct: stably transfected with full-length cDNA encoding human E-selectin; expressed in transfected cells
T2 sequence (P16581 22-610): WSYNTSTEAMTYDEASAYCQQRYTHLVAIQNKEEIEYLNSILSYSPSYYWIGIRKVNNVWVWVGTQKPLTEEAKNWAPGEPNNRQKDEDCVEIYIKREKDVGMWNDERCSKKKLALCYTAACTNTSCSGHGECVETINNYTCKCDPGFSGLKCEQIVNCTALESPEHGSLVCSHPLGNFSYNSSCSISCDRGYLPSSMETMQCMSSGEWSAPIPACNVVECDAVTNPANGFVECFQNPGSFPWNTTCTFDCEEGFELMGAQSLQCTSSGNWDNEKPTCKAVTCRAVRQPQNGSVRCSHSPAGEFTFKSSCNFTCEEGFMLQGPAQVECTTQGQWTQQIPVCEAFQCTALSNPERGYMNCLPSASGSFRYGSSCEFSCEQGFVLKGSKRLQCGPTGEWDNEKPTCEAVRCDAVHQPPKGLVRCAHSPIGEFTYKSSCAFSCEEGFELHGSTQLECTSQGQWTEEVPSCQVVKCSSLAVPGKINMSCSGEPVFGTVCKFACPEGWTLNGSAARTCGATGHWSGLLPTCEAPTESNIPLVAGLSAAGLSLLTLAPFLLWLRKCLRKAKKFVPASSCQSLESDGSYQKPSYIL
Experimental: The blot rolling assay was performed as previously described (Dimitroff et al., 2000). Briefly, CHO-E, CHO—P or CHO-Mock transfectants were isolated as described above, washed twice in HBSS and suspended at 10^7/ml in HBSS/10 mM HEPES/2mMCaCl2 (H/H/Ca++)/10% glycerol. Western blots of HPC membrane preparations stained with HECA-452 were rendered transparent by incubating them in H/H/Ca++/10% glycerol. The blots were then placed in the parallel-plate flow chamber, and CHO transfectants (2×10^6/ml) were perfused into the chamber. After allowing the cells to come in contact with the blotting membrane, the flow rate was adjusted to exert a shear stress of 3.8 dynes/cm^2. The viscosity of 10% glycerol adhesion assay medium was considered in the calculation of shear stress values. The number of cells rolling on and between each immunostained banding region was quantified under 100× magnification within each field of view on the video monitor using molecular weight markers (Kaleidoscope Molecular Weight Markers, Bio-Rad Lab.; See Blue® from Novex, Inc.) as guides to help align and visualize the apparent molecular weights of the proteins of interest. A minimum of 3 experiments was performed and results were expressed as the mean±SD of cell rolling/field at 100× magnification.

[5] = molecular target: T2, E-selectin; test: CHO-E cell rolling on immobilized immunoprecipitates, parallel-plate flow chamber; type: cell-based; details: for E-selectin ligand activity (CHO-E cell rolling): immunoprecipitates on plastic, 2.8 dynes/cm^2
Experimental: CD44 was immunoprecipitated from untreated cell lysates or from cell lysates treated with N-glycosidase-F (0.8 U/ml) Vibrio cholerae neuraminidase (0.1 U/ml) or a-L-fucosidase (80 mU/ml), and PSGL-1 was immunoprecipitated from untreated cell lysates as previously described (Sackstein and Dimitroff, 2000; Dimitroff et al., 2000).
CD44 or PSGL-1 immunoprecipitates were spotted onto plastic petri dishes, fixed in 3% glutaraldehyde and incubated in 0.2M lysine to block unreactive aldehyde groups, and then non-specific binding was prevented by incubating in 100% FBS for 1 hr at RT. Fixed spots were also treated with Vibrio cholerae neuraminidase (0.1 U/ml assay medium), which was overlaid onto the spots and incubated at 37° C. for 1 hr. […] The flow rate was then increased to achieve a shear stress of 2.8 dynes/cm^2. The frequency of cells rolling per 100× magnification field was determined, and data were expressed as the mean±standard deviation of 8 fields visualized from a minimum of 3 experiments.

[6] = molecular target: T3, P-selectin (Homo sapiens, UniProt P16109); test: CHO-P cell rolling on immobilized immunoprecipitates, parallel-plate flow chamber; type: cell-based; details: 2.8 dynes/cm^2
T3 construct: CHO-P (CHO stably transfected with human cDNA encoding full length P-selectin); expressed in transfected cells
T3 sequence (P16109 42-830): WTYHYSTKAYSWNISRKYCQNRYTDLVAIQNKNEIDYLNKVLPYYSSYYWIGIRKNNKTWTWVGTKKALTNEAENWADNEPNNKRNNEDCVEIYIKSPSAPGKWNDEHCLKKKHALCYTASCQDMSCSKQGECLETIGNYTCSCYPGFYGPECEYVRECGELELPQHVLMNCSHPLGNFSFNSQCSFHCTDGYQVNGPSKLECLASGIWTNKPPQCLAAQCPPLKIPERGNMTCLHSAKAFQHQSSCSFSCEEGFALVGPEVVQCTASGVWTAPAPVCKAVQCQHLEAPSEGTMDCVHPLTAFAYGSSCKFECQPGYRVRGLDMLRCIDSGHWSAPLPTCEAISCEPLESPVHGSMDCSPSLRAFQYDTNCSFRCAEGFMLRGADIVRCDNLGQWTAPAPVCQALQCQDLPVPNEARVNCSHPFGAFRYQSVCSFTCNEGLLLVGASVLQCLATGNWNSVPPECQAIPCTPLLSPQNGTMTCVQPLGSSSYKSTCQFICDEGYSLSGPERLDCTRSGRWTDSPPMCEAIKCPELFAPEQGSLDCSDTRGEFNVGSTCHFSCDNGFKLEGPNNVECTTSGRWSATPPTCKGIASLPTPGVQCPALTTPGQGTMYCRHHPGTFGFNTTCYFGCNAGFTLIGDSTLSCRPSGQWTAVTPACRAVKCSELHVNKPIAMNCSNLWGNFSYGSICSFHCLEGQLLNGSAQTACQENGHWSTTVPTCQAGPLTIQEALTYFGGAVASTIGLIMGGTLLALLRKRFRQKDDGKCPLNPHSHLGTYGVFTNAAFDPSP
Experimental: CD44 or PSGL-1 immunoprecipitates were spotted onto plastic petri dishes, fixed in 3% glutaraldehyde and incubated in 0.2M lysine to block unreactive aldehyde groups, and then non-specific binding was prevented by incubating in 100% FBS for 1 hr at RT. Fixed spots were also treated with Vibrio cholerae neuraminidase (0.1 U/ml assay medium), which was overlaid onto the spots and incubated at 37° C. for 1 hr. The protein dishes were placed in the parallel-plate flow chamber and CHO-E, CHO-P (CHO stably transfected with human cDNA encoding full length P-selectin), CHO-P cells treated with function blocking anti-P-selectin moAb (clone AK-4; Pharmingen) (10 μg/ml), CHO-E cells treated with function blocking anti-E-selectin Abs (10 μg/ml) (clone 68-5H1 1) or Mock transfectants were perfused into the chamber (2×10^6/ml H/H/Ca++) at a flow rate of 0.2 ml/min until the cells were in contact with the substrate. The flow rate was then increased to achieve a shear stress of 2.8 dynes/cm^2. The frequency of cells rolling per 100× magnification field was determined, and data were expressed as the mean±standard deviation of 8 fields visualized from a minimum of 3 experiments.

Molecule | incorporation of [35S]-SO4 into immunoprecipitable CD44 (Hermes-1) [1] | Mean Number of Bound Lymphocytes [2] | L-selectin ligand activity (lymphocyte tethering and rolling) in blot rolling assay [3] | E-selectin ligand activity (CHO-E cell rolling) in blot rolling assay [4] | E-selectin ligand activity (CHO-E cell rolling) [5] | P-selectin ligand activity (CHO-P cell rolling) [6] | CHO-E cell rolling ([5]; lower shear stress of 0.6 dynes/cm^2)
[O-][Cl+2]([O-])O [chlorate, sodium chlorate] | completely inhibited | – | – | – | – | – | –
KG1a N-glycosidase-F CD44: CD44 immunoprecipitated from N-glycosidase-F-treated KG1a membrane protein | – | 30.7 | abolished all L-selectin-mediated lymphocyte tethering and rolling | completely abrogated CHO-E cell rolling | abrogated CHO-E cell rolling | – | –
B1 | – | 44.8 | – | – | significantly lower | rolled on KG1a PSGL-1 | equivalent to that of CD44
